Measured values: article PMC2064704

Tests used:
[1] = target: endogenous actin filaments of XTC cells (Xenopus laevis (endogenous in XTC)) (UniProt O93400); experiment: decay of EGFP fluorescence in permeabilized cells
[2] = target: endogenous actin filaments of XTC cells (Xenopus laevis (endogenous in XTC)) (UniProt O93400); experiment: single-molecule speckle microscopy

| decay rate of fluorescence in lamellipodia of permeabilized cells [1] [s⁻¹] | half-life of persistent speckles after 1 μM Jas [2] [s] | half-life of persistent speckles before Jas [2] [s] | half-life of persistent speckles in lamella away from stress fibers [2] [s] | half-life of persistent speckles on stress fibers [2] [s] | half-life of speckles in lamellipodia [2] [s] | Substance |
| --- | --- | --- | --- | --- | --- | --- |
| 0.00017 | 68.9 | 4.26 | 0.95 | 2.9 | 1.2 | EGFP-CPβ1 expressed in XTC cells (coupled with endogenous CPα subunits) (complex) |
| – | – | – | – | – | 1.23 | CPβ1-EGFP expressed in XTC cells (coupled with endogenous CPα subunits) (complex) |
